The results in this text go back to the supplement of paper PMC10567573.

The chains are these.
B1: PRPH (parent)
chain: RTFGPPPSLSPGAFSYSSSSRFSS
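Also: lentivirally expressed fusions sorted by FACS into six bins by GFP to DsRed ratio, PSI derived from sequencing read proportions per bin multiplied by bin number.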

This series covers variants of B1. The experiment in a line: protein stability index of a GFP-peptide fusion (GPS, HEK-293T) (PSI 1-6); higher = more stable. The conditions noted are these: c terminus: a fixed tail appended.
Take RTFGPPPSLSPGARSYSSSSRFSS: the protein stability index amounted to 4.11. Consider RTFGPPPSLSPGAGSYSSSSRFSS, for which the protein stability index was 3.3.

Take RTFGPPPSLSPGAISYSSSSRFSS: the protein stability index turned out to be 3.17. Take RTFGPPPSLSPGAASYSSSSRFSS: the protein stability index turned out to be 3.53. To RTFGPPPSLSPGANSYSSSSRFSS belongs 4.03; to RTFGPPPSLSPGAMSYSSSSRFSS, 3.28; to RTFGPPPSLSPGAESYSSSSRFSS, 4.21. To RTFGPPPSLSPGAKSYSSSSRFSS belongs 4.23. To RTFGPPPSLSPGAVSYSSSSRFSS belongs 3.52; to RTFGPPPSLSPGATSYSSSSRFSS, 4.16. Take RTFGPPPSLSPGAQSYSSSSRFSS: the protein stability index stood at 4.01.

On to RTFGPPPSLSPGAWSYSSSSRFSS, for which the protein stability index came out at 3.22. To RTFGPPPSLSPGAYSYSSSSRFSS belongs 2.87; to RTFGPPPSLSPGALSYSSSSRFSS, 3.4.

For RTFGPPPSLSPGACSYSSSSRFSS, the protein stability index worked out at 3.09.

RTFGPPPSLSPGAHSYSSSSRFSS: the protein stability index was determined as 3.7. Consider RTFGPPPSLSPGLFSYSSSSRFSS, for which the protein stability index came to 3.18. As for RTFGPPPSLSPGEFSYSSSSRFSS, the protein stability index was determined as 3.51.

In the case of RTFGPPPSLSPGHFSYSSSSRFSS, the protein stability index worked out at 3.05.

Regarding RTFGPPPSLSPGDFSYSSSSRFSS, the protein stability index amounted to 3.5. As for RTFGPPPSLSPGPFSYSSSSRFSS, the figure is 3.21; as for RTFGPPPSLSPGGFSYSSSSRFSS, 3.21; as for RTFGPPPSLSPGNFSYSSSSRFSS, 3.94. As to RTFGPPPSLSPGIFSYSSSSRFSS, the protein stability index was 3.33.

As to RTFGPPPSLSPGVFSYSSSSRFSS, the protein stability index turned out to be 2.94. For RTFGPPPSLSPGQFSYSSSSRFSS, the protein stability index is 3.62. With RTFGPPPSLSPGRFSYSSSSRFSS, the protein stability index is 3.01. For RTFGPPPSLSPGTFSYSSSSRFSS, the protein stability index is 3.45.

For the variant RTFGPPPSLSPGFFSYSSSSRFSS, the protein stability index turned out to be 2.98. To RTFGPPPSLSPGYFSYSSSSRFSS belongs 3.14; to RTFGPPPSLSPGSFSYSSSSRFSS, 2.73; to RTFGPPPSLSPGKFSYSSSSRFSS, 3.42. To RTFGPPPSLSPGMFSYSSSSRFSS belongs 3.29. In the case of RTFGPPPSLSPGWFSYSSSSRFSS, the protein stability index was determined as 2.79.

RTFGPPPSLSPGCFSYSSSSRFSS: the protein stability index turned out to be 2.86.

For RTFGPPPSLSPGAFSYSSSSRASS, the protein stability index turned out to be 3.4. To RTFGPPPSLSPGAFSYSSSSRCSS belongs 3.82; to RTFGPPPSLSPGAFSYSSSSRMSS, 3.73; to RTFGPPPSLSPGAFSYSSSSRISS, 3.81. To RTFGPPPSLSPGAFSYSSSSRHSS belongs 3.55; to RTFGPPPSLSPGAFSYSSSSRDSS, 3.94; to RTFGPPPSLSPGAFSYSSSSRGSS, 4.16. Regarding RTFGPPPSLSPGAFSYSSSSRNSS, the protein stability index came out at 3.44. Turning to RTFGPPPSLSPGAFSYSSSSRLSS, the protein stability index was determined as 3.72.

As to RTFGPPPSLSPGAFSYSSSSRPSS, the protein stability index is 3.27. Consider RTFGPPPSLSPGAFSYSSSSRKSS, for which the protein stability index stood at 4.21. As for RTFGPPPSLSPGAFSYSSSSRESS, the protein stability index is 4.03.

Take RTFGPPPSLSPGAFSYSSSDRFSS: the protein stability index worked out at 3.23. On to RTFGPPPSLSPGAFSYSSSRRFSS, for which the protein stability index was determined as 3.41. On to RTFGPPPSLSPGAFSYSSSFRFSS, for which the protein stability index was 2.35.

Take RTFGPPPSLSPGAFSYSSSERFSS: the protein stability index worked out at 2.76.

Take RTFGPPPSLSPGAFSYSSSHRFSS: the protein stability index stood at 2.96.

RTFGPPPSLSPGAFSYSSSNRFSS: the protein stability index amounted to 3.31.

On to RTFGPPPSLSPGAFSYSSSVRFSS, for which the protein stability index came to 2.86. As for RTFGPPPSLSPGAFSYSSSWRFSS, the figure is 2.09.

With RTFGPPPSLSPGAFSYSSSYRFSS, the protein stability index is 2.74. For RTFGPPPSLSPGAFSYSSSQRFSS, the protein stability index is 3.57. RTFGPPPSLSPGAFSYSSSTRFSS: the protein stability index worked out at 2.94. With RTFGPPPSLSPGAFSYSSSLRFSS, the protein stability index amounted to 2.48. In the case of RTFGPPPSLSPGAFSYSSSPRFSS, the protein stability index is 3.45. As to RTFGPPPSLSPGAFSYSSSKRFSS, the protein stability index was determined as 3.81. Turning to RTFGPPPSLSPGAFSYSSSIRFSS, the protein stability index worked out at 2.43.

On to RTFGPPPSLSPGAFSYSSSGRFSS, for which the protein stability index stood at 2.99. For the variant RTFGPPPSLSPGAFSYSSSMRFSS, the protein stability index was 3.05. Regarding RTFGPPPSLSPGAFSYSSSARFSS, the protein stability index turned out to be 3.71. Regarding RTFGPPPSLSPGAFSYSSSCRFSS, the protein stability index was determined as 2.33. As for RTFGPPPSLSPGAFSYCSSSRFSS, the figure is 2.85; as for RTFGPPPSLSPGAFSYRSSSRFSS, 2.99; as for RTFGPPPSLSPGAFSYQSSSRFSS, 3.1.

As to RTFGPPPSLSPGAFSYESSSRFSS, the protein stability index worked out at 3.59. To RTFGPPPSLSPGAFSYASSSRFSS belongs 3.02. For the variant RTFGPPPSLSPGAFSYISSSRFSS, the protein stability index came out at 2.55. Regarding RTFGPPPSLSPGAFSYHSSSRFSS, the protein stability index turned out to be 2.54.

On to RTFGPPPSLSPGAFSYDSSSRFSS, for which the protein stability index came out at 3.06.

Turning to RTFGPPPSLSPGAFSYFSSSRFSS, the protein stability index worked out at 2.37.

For the variant RTFGPPPSLSPGAFSYNSSSRFSS, the protein stability index came out at 3.71. In the case of RTFGPPPSLSPGAFSYPSSSRFSS, the protein stability index amounted to 3.16. For RTFGPPPSLSPGAFSYVSSSRFSS, the protein stability index was determined as 2.75.

Take RTFGPPPSLSPGAFSYWSSSRFSS: the protein stability index stood at 2.27. Take RTFGPPPSLSPGAFSYLSSSRFSS: the protein stability index was found to be 2.53. Turning to RTFGPPPSLSPGAFSYKSSSRFSS, the protein stability index was found to be 3.04. On to RTFGPPPSLSPGAFSYYSSSRFSS, for which the protein stability index was determined as 3.07. Take RTFGPPPSLSPGAFSYTSSSRFSS: the protein stability index was determined as 3.19.

Consider RTFGPPPSLSPMAFSYSSSSRFSS, for which the protein stability index was 2.89.

In the case of RTFGPPPSLSPYAFSYSSSSRFSS, the protein stability index came to 2.93. As to RTFGPPPSLSPWAFSYSSSSRFSS, the protein stability index came to 2.25.

Take RTFGPPPSLSPVAFSYSSSSRFSS: the protein stability index was 3.36.

Consider RTFGPPPSLSPSAFSYSSSSRFSS, for which the protein stability index is 3.42. RTFGPPPSLSPRAFSYSSSSRFSS: the protein stability index worked out at 3.35. Regarding RTFGPPPSLSPTAFSYSSSSRFSS, the protein stability index was 3.31. In the case of RTFGPPPSLSPIAFSYSSSSRFSS, the protein stability index worked out at 3.05.

As for RTFGPPPSLSPNAFSYSSSSRFSS, the protein stability index is 3.14. Consider RTFGPPPSLSPKAFSYSSSSRFSS, for which the protein stability index was 3.21. As to RTFGPPPSLSPFAFSYSSSSRFSS, the protein stability index was 2.16.
